Target: protein A (UniProt P38507 37-327)
Assay: ForteBio Octet HTX (filing: SPR), HCAb on AHC sensors, 1:1 model

B1: CNG-HSA-101 (VHH)
VHH: KVQLVESGGGLVQPGGSLRLSCAASGFTFSSFGMTWVRQAPGKGLEWVSSISGSGSDTLYADSVRGRFTISRDNSKNTLYLQMNSLRAEDTAVYYCTIGGSLSPSSQGTLVTVSS
For B1, the Kd was at most 1.84 nM and the koff was at most 0.0002 s⁻¹.

Reference: US20230032087A1 (CULLINAN ONCOLOGY, published 2023)
